This series can be described thus: yeast display, Sf9 membrane polyspecificity reagent, FACS + sequencing; frameworks hold sequencing errors. In a few lines:
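Using colony PCR, genes from sorted yeast display clones were amplified, then sequenced on MiSeq at 2 × 250 and filtered by CDR length. The clones had been stained with 10% biotinylated, detergent-solubilized Sf9 membrane reagent for 1 hour at 4 °C and sorted by FACS into low and high (top ~1%) gates on anti-HA and streptavidin fluorescence. Polyreactivity labels come from the gate of origin.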
In the case of “QVQLVESGGGLVQAGGSLRLSCAASGFTFYYYAMGWYRQAPGKERELVAAISDSGGITSYADSVKGRFTISRDNAKNTVYLQMNSLKPEDTAVYYCAAEWSQWPYDYWGQGTQVTVSS”, the “polyreactivity (PSR sort gate)” value is given as “low polyreactivity”. Then “QVQLVESGGGLVQAGGSLRLSCAASGFTFVFYAMGWYRQAPGKERELVAGISRTGGSTYYADSVKGRFTISRDNAKNTVYLQMNSLKPEDTAVYYCNAARFTRRDYWGQGTQVTVSS”, with “high polyreactivity”; and “QVQLVESGGGLVQARGSLRLSCAASGSTFVTYAMGWYRQAPGKERELVAAITWSGGGTYYADSVKGRFTISRDNAKNTVYLQMNSLKPEDTAVYYCNRPAAVGDEDYWGQGTQVTVSS”, with “low polyreactivity”. As to “QVQLVESGGGLVQAGGSLRLSCAASGFTFTSYVMGWYRQAPGKEREFVAAITRSAGGTYYADSVKGRFTISRDNAQNTFYLQINSLKPEDTAVYYCAAEYYVPGGGAYRGDYWGQGTQVTGSS”, the “polyreactivity (PSR sort gate)” value is reported as “high polyreactivity”. Regarding “QVQLVESGGGLVQAGGSLRLSCAASGRTFYLYAMGWYRQAPGKERELVAAITRRGGSTYYADSVKGRFTISRDNAKNTVYLQMNSLKPEDTAVYYCAADRPGTGYSDYDYWGQGTQVTVSS”, the “polyreactivity (PSR sort gate)” value is “high polyreactivity”. With “QVQLVESGGGLVQAGGSLRLSCAASGFIFYRYLMGWYRQAPGKERELVAAISRSGDRTYYADSVKGRFTISRDNAKNTVYLQMNSLKPEDTAVYDCAAALYYFSRGYWGQGTQVTVSS”, the “polyreactivity (PSR sort gate)” value is on record as “high polyreactivity”. In the case of “QVQLVESGGGLVQAGGSLRLSCAASGSTFTNYAMGWYRPAPGKERELVARITSSGSRTYYADSVKGRFTISRDNAKNTVYLQMNSLKPEDTAVYYCNAETYYLRYGRGYRRFDYWGQGTQVTVSS”, the “polyreactivity (PSR sort gate)” value is recorded as “high polyreactivity”. “QVQLVESGGGLVQAGGRLRLSCAASGGIFRRNAMGWYRPAPGKERELVAAISRSGGRTYYADSVKGRFTISRDNAKTSVYLQMNSLKPEDTAVYYCNADYGTRAGVDYWGQGTQVTVSS”: the “polyreactivity (PSR sort gate)” value was “low polyreactivity”.

With “QVQLVESGGGLVQAGGSLRLSCAASGRILPSNAMGWYRQATGNERELVATISSSGGDTYYADSVKGRFTNSRDNAKNTVYLQMNSLKPEDTAVYYCAADSTWEGGYKYEYWGQGTQVTVSS”, the “polyreactivity (PSR sort gate)” value is “low polyreactivity”. For the sequence “QVQLVESGGGLVQAGGSIRLSCAASVFTFRANGMGWYRKAPGKERELVATITSGGTTNYADSVKGRFTISRDNAKNTVYLQMNSLIPEDTAVYYCNAGSVSDRQMDYWGQGTQGTVSS”, the “polyreactivity (PSR sort gate)” value is on record as “low polyreactivity”. Take “QVQLVESGGGLVQAGGSLRLSCAASGFTLYSYVMGWYRQAPGKERELVAAISRSGVSTHYADSVKGRFTISRDNAKNTVYLQMNSLKPEDTAVYYCNKVYYYVGTLDYWGQGTQVTVSS”: the “polyreactivity (PSR sort gate)” value was “high polyreactivity”. Then “QVQLVESGGGLVQAVGSLRLSCAASGSIFRKYVMGWYRQAPGKERELVAVISSGTGTYYADSVKGRFTISRDNAKNSVYLQMNSLKPEDTAVYYCAAKYFGKWYKYYYWGQGTQVTVSS”, with “high polyreactivity”; and “KVQLVESGGGLVQAGGSLRLSCAASGSTFSYYAMGWYRQGPGKERELVAAITRSGYSTYYADSVKGRFTISLDNAKNTVYLQMNSLKPEDTAVYYCNTVSRYKYPKPTYYQSSFYYWGQGTQVTVSS”, with “high polyreactivity”. Turning to “QVQLVESGGGLVQAGGSLRLSCAASGFIFLYNAMGWYRQAPGKERELVATITSGGSTNYADSVKGRFTISRDNAKNTVYLQMNSLKPEDTAVYYCAVRRKAYYSYYYHDPYYYWGQGTQVTVSS”, the “polyreactivity (PSR sort gate)” value is “low polyreactivity”. For the sequence “QVQLVESGGGLVQAGGSLRLSCAASGRIFYYYDMGWYRQAPGKARELVAAITSAGITYYADSVKGRFTISRDNAKNTVYLQMNSLKPEDTAVYYCAVEFYDKRWPYRGGYWGQGTQVTVSS”, the “polyreactivity (PSR sort gate)” value was “low polyreactivity”. In the case of “QVQLVESGGGLVQAGGSLRLSCAASGYTFLIYAMGGYRQAPGKERELVASISRSGGSTYYADSVKGRFTISRDNAKKTVYLQMNSLKPEDTAVYYCAARNPYRYFYNYEYWGQGTQVTVSS”, the “polyreactivity (PSR sort gate)” value was “low polyreactivity”.
